Source: the nanobody polyreactivity screen of Harvey et al. (2022)

Experiment: yeast display, Sf9 membrane polyspecificity reagent, FACS + sequencing; frameworks hold sequencing errors
Summary of the method: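 In a synthetic yeast display library (Saccharomyces cerevisiae BJ5465), nanobody expression was induced with galactose for 36–48 hours. FACS gates were set low and high (top ~1%) using anti-HA fluorescence for expression and streptavidin fluorescence for binding of the Sf9 membrane reagent. Each polyreactivity label is drawn from the gate of origin.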

| Sequence | polyreactivity (PSR sort gate) |
| --- | --- |
| QVQLVESGRGLVQAGGSLRLSCAASGIIFGSYAMGWYRQAPGKEMELVAAISRGTSTYYADSVKGRFTISRDNAKITVYLQMNSLNPEDTAVYYCAATRQEYGPHSRFVYVNYYYWGQGTQVTVSS | low polyreactivity |
| QVQLVESGRGLVQAGGSLRLSCAASGITFRYYAMGWYRPAPGKERELVAAITRGGRTNYADSVKGRFTISRDNAKNTVYLQMNSLKPEDTAVYYCATGRDSNFGNSYYYWGQGTQVTVSS | high polyreactivity |
| QVQLVESGRGLVQAGGSLRLSCAASGITFTGYAMGWYRQAPGKERELVAASTSGGSTTYADSVKGRFTISRDNAKNTVYLQMNSQKPEDTAVYYCGARTADYSTAEYDYWGQGTQLTVSS | low polyreactivity |
| QVQLVESGRGLVQAGGSLRLSCAASGRIFKTYAMGWYRQAPGKERELVAAITTSGDSTYYADSVKGRFTISRDNAKNTVYLQMNSLKPEDTAVYYCAARPRVRSSYRYYYWGQGTQLTVSS | high polyreactivity |
| QVQLVESGRGLVQAGGSLRLSCAASGRIFRYYTMGCYRQAPGKERELVASITYRGTSTYYADSVKGRFTISRDNAKNTVYLQMTSLKPEDTAVYYCNKDLFFRSISSKYDYWGQGTQVTVSS | high polyreactivity |
| QVQLVESGRGLVQAGGSLRLSCAASGRIFSGNAMGWYRQAPGKERELVAGITWTGGRTYYAASVKGRFTISRDNAKNTVYLQMNSLKPEDTAVYYCAARYTRWSDLMYYWGQGTQVTVSS | high polyreactivity |
| QVQLVESGRGLVQAGGSLRLSCAASGRIFVAYTMGLYRQAPGKERELVASINRSGGTYYADSVKGRFTISRDNAKNTVYLQMNRLKPEDTAVYYCNAVFRSRSYFSKGDYWGQGTQVTVSS | high polyreactivity |
| QVQLVESGRGLVQAGGSLRLSCAASGRIFYYNDMGWYRQAPGKERELVASITGSGGSTYYADSVKGRFTISRDNAKNTVYLQMNSLKPEDTAVYYCAKREYLYPYYYVAKYDYWGQGTQVTVSS | low polyreactivity |
| QVQLVESGRGLVQAGGSLRLSCAASGRIYRRNAIGWYRQAPGKERELVAAITWSDGSTYYADSVKGRFTISRDNAKNTVYFQMNSLKPEDTAVYYCNKVTRSPSEYDYWGQGTQVTVSS | high polyreactivity |
| QVQLVESGRGLVQAGGSLRLSCAASGRTFAVSTMGWYRKAAGQERELVATISWSGGSTYYADSVKGRFTISRDNAKNTVYLQMNSLKPEDTAVYFCNADFTWGSYERDYWGQGTQGTVSS | high polyreactivity |
| QVQLVESGRGLVQAGGSLRLSCAASGRTFNWYAKGWYRQAPGKERELVAAISSGGSTYYADSVKGRFTISRDNAKNTVYLQMNSLKPEDTAVYYCAAVTPSGAHRSAYHPISDYWGQGTQVTVSS | low polyreactivity |
| QVQLVESGRGLVQAGGSLRLSCAASGRTVWVYTMGWYRQAPGKERELVAAITLSGGSTYYADSVKGRFTISRDNAKNTVYLQMNSLKPEDTAVYYSNARPYYYTYRHSQYYYWGQGTQVTVSS | high polyreactivity |
| QVQLVESGRGLVQAGGSLRLSCAASGSIFNCYDMGWYRQAPGKERELVADIRSAGSTYYADSVKGRFTISRDNAKNTVYLQMNSLKPEDTAVNYCAAEAPVQPFYVFNTGIYELDYWGQGTQVTVSS | low polyreactivity |
| QVQLVESGRGLVQAGGSLRLSCAASGSIFQKYTMGWYRQAPGKERELVAGINTSGANTYYADSVKGRFTISRDNAKNTVYLQMNSLKPEDTAVYYCAAARPWFAYYYWGQGTQVTVSS | high polyreactivity |
| QVQLVESGRGLVQAGGSLRLSCAASGSIFRGNAMGWYRQAPGKERELVAAMTKRGGSTYYADSGKGRFTISRDNAKNTDKFQMNSLKPEDTAVYYFAAKPSYRYYKSYDYWGQGTQVTVSS | high polyreactivity |
| QVQLVESGRGLVQAGGSLRLSCAASGSIFSGNAMGWYRQAPGKERELVAAISRSGGSTYYADSVKGRFTISRDNAKNTVYLQLYSLKPEDTAVYYCAAYRTHGPPRALRFDYWGQGTLVTVSS | high polyreactivity |
| QVQLVESGRGLVQAGGSLRLSCAASGSTFLGNAMGWYREAPGKARELVAAITSAGSTYYADSVKGRFTISRDNAKNTVYLQMNSLKPEDTAVYYCNADSTWGGYGFDDWGQGTQVTVSS | low polyreactivity |
| QVQLVESGRGLVQAGGSLRLSCAASGSTFVYNVMGWYRQAHGKERELVAAIRRRGGSTYADSVKGRFTITRDNAKNTVYLQMNSLNPEVTAVYYCAAGIPRYWYAGHYDYWGQGTKVTVSS | low polyreactivity |
| QVQLVESGRGLVQAGGSLRLSCAASGSTLATYTMGWYRQAPGKERELVPAISFGGSTYYADSVKGRFTISRDNAKNTVYLQMNSLKPEDTAVYYCAVYGDSYWGAYYYSDGYWGQGTQVTVSS | low polyreactivity |
| QVQLVESGRGLVQAGGSLRLSCAASGYTFSNYGMGWYRQAPGKERELVAGIILGGSSTYYADSVKGRFTISRDNAKNTVYLQMNSLKPEDTAVYYCAAYVTGRYDWGQGTQVTVSS | high polyreactivity |
| QVQLVESGRGLVQAGGSLRLSCAATGLTFNQYAMGWYRQAPGKERELVAAITRVGRTYYADSVKGRFTISRDNAKNSVYLQMNSLKPEDTAVYYWGYPDVAERRGSYYWGQGTQVTVSS | high polyreactivity |

| Sequence | polyreactivity (PSR sort gate) |
| --- | --- |
| QVQLVESGRGLVQAGGSLRLSCAPSGRISAQYTMGWYRQAPGKERELVAAITWSGTNTYYADSVKGRFTISRDNAKNTVYLQMNSLKPEDTAVYYCATAVYLVIFEYDYWGQGTQVTVSS | low polyreactivity |
| QVQLVESGRGLVQAGGSLRLSCASSGFIFGPYAMGWYRQAPGKERELVAAISRRGGSTYYADSVKGRFTISRDNAKNTVYLQMNSLKPEDTAVYYCATRISQSYYNYGYWGQGTQGTVSS | high polyreactivity |
| QVQLVESGRGLVQAGGSLRLTGAASGRIFGLYAMGWYRHAPGKERELVAAISRRGGTTYYADSVQGRFTISRDNAKNTVDLQMNSLKPEDTAVYYCAAATVYLSWYYWGQGTQVTVSS | high polyreactivity |
| QVQLVESGRGLVQAGGSLSLSCAASGSILYIYAMVWNIQAPGKERELVDSINSGGSTNYADSVKGRFTISRDNAKNTVYLEMNSLIPEDTAVYYCAKSIGNPPQGFKDFDYWGQGTLVTVSS | low polyreactivity |
| QVQLVESGRGLVQEGGSLRLSCAASGSTFEPYAMGWYRQAPGKERELVAAITLTAGSTYYADSVKGRFTISRDNAKNTVYLQRNSLKPEDTAVYYCAAEFWLVEDDYWGQGTQVTVSS | low polyreactivity |
| QVQLVESGRGLVRAGGSLPFSCAASAGNFMRYAMGWYRQAPGKERELVAAITANGGSTYYADSVKGRFTISRDNAKNTVYLQMNSLKPEDTAVYYCNADTGVRSYRRDYWGQGSQVTVSS | low polyreactivity |
| QVQLVESGRRLVQAGGSLRLSCAASGRIFPGNAMGWYRQAPGKERELVAAMSYGGGSTYYADSVKGRFTISRDNAKNTVYLQMNSLKPEDTAVYYCAARYRGSRFDYWGQGTQVTVSS | high polyreactivity |
| QVQLVESGRVLVQAGGSLRLSCAASGITFISYAMGWYRPAPGKQSELVAVISKSGGRTYYADSVKGSFTISRDNANNTVYLQMNSLKPEDTAVYYCAADVYLSRYEKYGYWGQGTQVTVSS | high polyreactivity |
| QVQLVESGVALVQAAGSLRLSCAASGSTFGYYTMGWYRQAPGKERELVAAISWSGGSTYYADSVKGRFTISRDHAKTTVYLQMNSLKPEDTAVYFCAAKTNRGSYSYEYWGQGTQVTVSS | high polyreactivity |
| QVQLVESGVCLVQAGGSLRLSCASSGRILSTYAMGWYRQPPGKERELVAAISSGGSTYYADSVKGRFTISRDNAKHTVDLQMNSLKPEDTAVYYCNARKKRGYSRPAFDYWGQGTQVTVSS | high polyreactivity |
| QVQLVESGVGFVQAGGSLRLSCAASGRIFGYYMGWYIQAPGKERELVAGISKRGTRTRYADSVKGRFTISRDNAKNTVFLQMNSLKPEDTAVYYCNADYYVSNMDYWGQGTQVTVSS | high polyreactivity |
| QVQLVESGVGIVEAGGSLRLSCAASGRSFTYNAMVWYRQAPGKERELVAAISNTGSTYYADSVKGRFTISRDNAKNSVYLQMNCVKPEDTAVYYCAADRAEFRQDDDPGESNYWGQGTQVTVSS | low polyreactivity |
| QVQLVESGVGIVQAGGILRLSCAASGSIFFFYAMGWYRQAPAKERELVAAITSSDGDTYYADSVKGRFTISRDNAKNTVYLEMNSLKPEDTAVYYCAVRSSWYEGDYWGQGTQVTVSS | low polyreactivity |
| QVQLVESGVGIVQAGGSLRLSCAASGSTFRAYVMGWYRQAPGKERELVAVISSGGSTKYADSVKGRFTISRDNAKNTDYVQMNSLKPVDTAVYYCAARRASRHRYYPFDYWGQGTQVTVSS | high polyreactivity |
| QVQLVESGVGLDQAGGSLRLSCAASGSIFIINAMGLYRQAPGKERELVARISNGGNTYADSVKGRFTISRDNAKNTVYLQMKSLKPEDTAVYYCAARAYARRPKYVPKFDYWGQGTQVTVSS | high polyreactivity |
| QVQLVESGVGLFQAGGSLRLTCAASGSTFYLNDMGWYRQAPAKERELVAAIDWSGGSTYYADSVKGRFTNSRDNAKYYGYLQMNSLTPEDTAVYYCAARLFYEWRRLDYFIAWDYWGHGTQVTVSS | low polyreactivity |
| QVQLVESGVGLVKAGVSLRLSSDASARIFPHYAMGWYRQAPGKERELFAPINVDGGRTYYPDSVKGRFTISRDNAKNTVYLQLNILKPEDTAVYYCAAKPFLYHDQDYGYAVEFNYWGQGTQVTVSS | low polyreactivity |
| QVQLVESGVGLVQAAGSLRLSCASSGIICGEYAMGWYRQAPGNERELVAAISGSGSRTYYADSVKVRFTISRDIAKNTVFLQMNRLKPEDTAVYYCNSRRYIYNYDYWGQGTQVTVSS | high polyreactivity |
| QVQLVESGVGLVQAGGILRLSCAASGRIFNGYALGWYRQAPGKERELVAVITWNGGSTYYADSVKGRFTISRDNAKNTVYLQMNSLKPEETAVYYCADRRTGYYGTRDYWGQVTQVTVSS | high polyreactivity |
| QVQLVESGVGLVQAGGILRLSCAASGRIFYKNAMVWYRQAPGKERELVATITYSDGTTYYADSLKGRFTISRDNAKNTVYLQMNSLKPEDTAVYYCAAQTDSVESDYWGQGTQVTVSS | low polyreactivity |
